Measurements as given in patent publication US20260266848A1, “COMPOSITIONS AND METHODS FOR DIAGNOSING AND TREATING DYSTONIA” (Duke University, priority 2023, published 2026).

B1: Tars (protein, UniProt Q9D0R2 1-722, looked up)
Threonine--tRNA ligase 1, …: MSQEKASSPSGKMDGEKPVDASEEKRKEGGKKKSKDGGGDGGRAELNPWPEYINTRLDMYNKLKAEHDSILAEKAAKDSKPIKVTLPDGKQVDAESWKTTPYQIACGISQGLADNTVVAKVNKVVWDLDRPLETDCTLELLKFEDEEAQAVYWHSSAHIMGEAMERVYGGCLCYGPPIENGFYYDMYLEEGGVSSNDFSSLETLCKKIIKEKQTFERLEVKKETLLEMFKYNKFKCRILNEKVNTPTTTVYRCGPLIDLCRGPHVRHTGKIKTLKIHKNSSTYWEGKADMETLQRIYGISFPDPKLLKEWEKFQEEAKNRDHRKIGRDQELYFFHELSPGSCFFLPKGAYIYNTLMEFIRSEYRKRGFQEVVTPNIFNSRLWMTSGHWQHYSENMFSFEVEKEQFALKPMNCPGHCLMFDHRPRSWRELPLRLADFGVLHRNELSGALTGLTRVRRFQQDDAHIFCAMEQIEDEIKGCLDFLRTVYSVFGFSFKLNLSTRPEKFLGDIEIWNQAEKQLENSLNEFGEKWELNPGDGAFYGPKIDIQIKDAIGRYHQCATIQLDFQLPIRFNLTYVSHDGDDKKRPVIVHRAILGSVERMIAILTENYGGKWPFWLSPRQVMVVPVGPTCDEYAQKVRQQFHDAKFMADTDLDPGCTLNKKIRNAQLAQYNFILVVGEKEKASGTVNIRTRDNKVHGERTVEETVRRLQQLKQTRSKQAEEEF
B2: Spr (protein, UniProt P35270 1-261, looked up)
Sepiapterin reductase: MEGGLGRAVCLLTGASRGFGRTLAPLLASLLSPGSVLVLSARNDEALRQLEAELGAERSGLRVVRVPADLGAEAGLQQLLGALRELPRPKGLQRLLLINNAGSLGDVSKGFVDLSDSTQVNNYWALNLTSMLCLTSSVLKAFPDSPGLNRTVVNISSLCALQPFKGWALYCAGKAARDMLFQVLALEEPNVRVLNYAPGPLDTDMQQLARETSVDPDMRKGLQELKAKGKLVDCKVSAQKLLSLLEKDEFKSGAHVDFYDK
B3: Ap1b1 (protein, UniProt O35643 1-943, looked up)
AP-1 complex subunit beta-1: MTDSKYFTTTKKGEIFELKAELNSDKKEKKKEAVKKVIASMTVGKDVSALFPDVVNCMQTDNLELKKLVYLYLMNYAKSQPDMAIMAVNTFVKDCEDPNPLIRALAVRTMGCIRVDKITEYLCEPLRKCLKDEDPYVRKTAAVCVAKLHDINAQLVEDQGFLDTLKDLISDSNPMVVANAVAALSEIAESHPSSNLLDLNPQSINKLLTALNECTEWGQIFILDCLANYMPKDDREAQSICERVTPRLSHANSAVVLSAVKVLMKFMEMLSKDLDYYATLLKKLAPPLVTLLSAEPELQYVALRNINLIVQKRPEILKHEMKVFFVKYNDPIYVKLEKLDIMIRLASQANIAQVLAELKEYATEVDVDFVRKAVRAIGRCAIKVEQSAERCVSTLLDLIQTKVNYVVQEAIVVIKDIFRKYPNKYESVIATLCENLDSLDEPEARAAMIWIVGEYAERIDNADELLESFLEGFHDESTQVQLQLLTAIVKLFLKKPTETQELVQQVLSLATQDSDNPDLRDRGYIYWRLLSTDPVAAKEVVLAEKPLISEETDLIEPTLLDELICYIGTLASVYHKPPNAFVEGGRGVVHKSLPPRTASSESTESPETAPAGAPAGDQPDVIPAQGDLLGDLLNLDLGPPVSGPPLAASSVQMGAVDLLGGGLDSLIGDSNFGAPSASVAAAPAPARLGAPISSGLSDLFDLTSGVGTLSGSYVAPKAVWLPAMKAKGLEISGTFTRQAGSISMDLQLTNKALQVMTDFAIQFNRNSFGLAPAAPLQVHVPLSPNQTVEISLPLNTVGSVLKMEPLNNLQVAVKNNIDVFYFSTLYPLHVLFVEDGKMDRQMFLATWKDIANENEAQFQIRDCPLNTEAASNKLQSSNIFTVAKRNVEGQDMLYQSLKLTNGIWVLAELRIQPGNPSFTLSLKCRAPEVSQHVYQAYETILKN
B4: Copb2 (protein, UniProt O55029 1-905, looked up)
Coatomer subunit beta': MPLRLDIKRKLTARSDRVKSVDLHPTEPWMLASLYNGSVCVWNHETQTLVKTFEVCDLPVRAAKFVARKNWVVTGADDMQIRVFNYNTLERVHMFEAHSDYIRCIAVHPTQPFILTSSDDMLIKLWDWDKKWSCSQVFEGHTHYVMQIVINPKDNNQFASASLDRTIKVWQLGSSSPNFTLEGHEKGVNCIDYYSGGDKPYLISGADDRLVKIWDYQNKTCVQTLEGHAQNVSCASFHPELPIIITGSEDGTVRIWHSSTYRLESTLNYGMERVWCVASLRGSNNVALGYDEGSIIVKLGREEPAMSMDANGKIIWAKHSEVQQANLKAMGDTEIKDGERLPLAVKDMGSCEIYPQTIQHNPNGRFVVVCGDGEYIIYTAMALRNKSFGSAQEFAWAHDSSEYAIRESNSIVKIFKNFKEKKSFKPDFGAESIYGGFLLGVRSVNGLAFYDWENTELIRRIEIQPKHIFWSDSGELVCIATEESFFILKYLSEKVLAAQETHEGVTEDGIEDAFEVLGEIQEIVKTGLWVGDCFIYTSSVNRLNYYVGGEIVTIAHLDRTMYLLGYIPKDNRLYLGDKELNIVSYSLLVSVLEYQTAVMRRDFSMADKVLPTIPKEQRTRVAHFLEKQGFKQQALTVSTDPEHRFELALQLGELKIAYQLAVEAESEQKWKQLAELAISKCQFSLAQECLHHAQDYGGLLLLATASGNASMVNKLAEGAERDGKNNVAFMSYFLQGKLDACLELLIRTGRLPEAAFLARTYLPSQVSRVVKLWRENLSKVNQKAAESLADPTEYENLFPGLKEAFVVEEWVKETHADLWPAKQYPLVTPNEERNVMEEAKGFQPSRPTAQQEPDGKPASSPVIMASQTTHKEEKSLLELEVDLDNLELEDIDTTDINLDEDILDD
B5: Rab3gap2 (protein, UniProt Q8BMG7 1-1366, looked up)
Rab3 GTPase-activating …: MACSIVQFCSFQDLQSARDFLFPHLREETPGALKRDPSKTSSWEDDSWGAWEETEPREPEEEGNTSKTQKNSWLQECVLSLSPTSDLMVIAREQKAAFLVRKWKHGDKGKEEMQFAVGWSGSVSAEEGEYVTSALCIPLASQKRSSTGRPDWTCIVVGFTSGYVRFYTEGVLLLAQLLNEDKVLQLKCRTYEIPRHPGVTEQNEELSILYPAAIVTIDGFSLFQSLRACRNQVAKAAASGNENIQPPPLAYKKWGLQDIDTIIDHASVGIMTLSPFDQMKTASNIGGFNAAIKNSPPAMSQYITVGSSPFTGFFYALEGSTQPLLSHVALAVASKLTSALFSAASGWLGWKSKHEEDTVQKQKPKMEPATPLAVRFGLPDSRRHGESICLSPCNTLAAVTDDFGRVILLDVARGIAIRMWKGYRDAQVGWIQIVEDLHERVPEKGGFSPFGNTQGPSRVAQFLVIYAPRRGILEVWNTQQGPRVGAFNVGKHCRLLYPGYKIMGLNNVTSQSWQPQTYQICLVDPVSASVKAVNVPFHLALSDKKSERAKDLHLVKKLSALLRAKSPRPDSFETEIKELILDIKYPATKKQALESILASDRLSFSCLRNVTQTLMDTLKNQELESVDEGLLQFCASKLKLLHLYESVSQLNTLDFHSDTPFSDNDLAVLLRLDDKELLKLRALLEKYKQENTKATVRFSEDADRVLPVKTFLEYLEYEKDALSIRKIGEEECVALGSFFFWKCLHGKSSTEEMCHSLESAGLSPQQLLSLLLSVWLSKEKDILDKPQSVCCLHTMLSLLSKMKVAIDETWDSQSVSPWWQQMRMACIQSENSGAALLSAHVGHSVAAQMSSGATDKKFSQMELDADAEALTDSWEALSLDTEYWKLLLRQLEDCLILQTLLHSKLSPPAAKAPSLQSEPLPRLSVKKLLEGGKGGIADSVAKWIFKQDLSPELLKCANKERDVENPDEPREDLLHLAYEQFPCSLELDVLHAHCCWEYVVQWNKDPEEARFLVRSIEHLKQILNPHVQNGIALMMWNTFLVKRFSAATYLMDKVGKSPKDRLCRRDVGMSDTALTSFLGSCLELLQTSLEADISRDEVQVPVLDTEDAWLSVEGPISIVELALEQKPIHYPLVEHHSVLCSILYASMRFSLKSVKPLALFDSKGKNAFFKDLTSIQLLPSGEMDPNFISVRQQFLLKVVSAAVQAQHSKDKDPSAEAANTHWKDLNWPGLAVDLAHHLQVSDDVIRRHYVGELYSHGADLLGEEAIFQVQDKEVLASQLLVLTGQRLAHALFHTQTKEGMELLARLPPTLCTWLKAMNPQDLQNTGVPIAATAKLVHKVMELLPEKHGQYSLALHLIDAVEAMATL
B6: Hmgcs1 (protein, UniProt Q8JZK9 1-520, looked up)
Hydroxymethylglutaryl-CoA …: MPGSLPLNAEACWPKDVGIVALEIYFPSQYVDQAELEKYDGVDAGKYTIGLGQARMGFCTDREDINSLCLTVVQKLMERHSLSYDCIGRLEVGTETIIDKSKSVKSNLMQLFEESGNTDIEGIDTTNACYGGTAAVFNAVNWVESSSWDGRYALVVAGDIAIYATGNARPTGGVGAVALLIGPNAPLIFDRGLRGTHMQHAYDFYKPDMLSEYPVVDGKLSIQCYLSALDRCYSVYRKKIRAQWQKEGKDKDFTLNDFGFMIFHSPYCKLVQKSLARMFLNDFLNDQNRDKNSIYSGLEAFGDVKLEDTYFDRDVEKAFMKASSELFNQKTKASLLVSNQNGNMYTSSVYGSLASVLAQYSPQQLAGKRVGVFSYGSGLAATLYSLKVTQDATPGSALDKITASLCDLKSRLDSRTCVAPDVFAENMKLREDTHHLANYIPQCSIDSLFEGTWYLVRVDEKHRRTYARRPFTNDHSLDEGMGLVHSNTATEHIPSPAKKVPRLPATSAESESAVISNGEH

test system: WT MEF EVs; experiment: Quantitative LC-MS/MS proteomics of EVs from ISRIB-treated WT MEF cultures; format: cell-based, mouse; parameters: key to ISRIB and DYT Parallel Direction / ISRIB and DYT Parallel Direction, Ctdsp1 / ISRIB and DYT Parallel Direction, Pcdh19 / ISRIB and DYT Parallel Direction, Tspan7 / ISRIB and DYT Parallel Direction, Myo1e / ISRIB and DYT Parallel Direction, Plpp3 / ISRIB and DYT Parallel Direction, Sh3bp4 / ISRIB and DYT Parallel Direction, Dnajc7 / ISRIB and DYT Parallel Direction, Drg1 / ISRIB and DYT Parallel Direction, Maea: YES = protein abundance effect similar to DYT/WT; conditions: EV protein abundance, ISRIB-treated WT vs WT

Row | Molecule | WT + ISRIB/WT Cohen's d
1 | B1 | −1.16
2 | B2 | −3.64
3 | B3 | −1.08
4 | B4 | −1.11
5 | B5 | −0.43
6 | B6 | −0.06

same assay, conditions: EV protein abundance, WT + ISRIB vs WT, direction compared with DYT/WT

Row | Molecule | ISRIB and DYT Parallel Direction
7 | B1 | YES
8 | B2 | YES
9 | B3 | YES
10 | B4 | YES
11 | B5 | YES
12 | B6 | YES

test system: DYT-TOR1A MEF EVs; experiment: Quantitative LC-MS/MS proteomics of EVs from drug-treated DYT-TOR1A MEF cultures (ritonavir, salubrinal); format: cell-based, mouse; parameters: key to RTV Corrective Direction / RTV Corrective Direction, Grwd1 / RTV Corrective Direction, Srrm2 / RTV Corrective Direction, Rbm17 / RTV Corrective Direction, Dcaf8 / RTV Corrective Direction, Edil3 / RTV Corrective Direction, Timp3 / RTV Corrective Direction, Heatr3 / RTV Corrective Direction, Brd4 / RTV Corrective Direction, P3h4 / RTV Corrective Direction, Pacsin3 / RTV Corrective Direction, Naa50 / RTV Corrective Direction, Lpar6 / RTV Corrective Direction, Ndrg1 / RTV Corrective Direction, Kntc1 / RTV Corrective Direction, Cdk11b / RTV Corrective Direction, Sumo1 / RTV Corrective Direction, Lsm4 / RTV Corrective Direction, Hmga2 / RTV Corrective Direction, Cstf1 / RTV Corrective Direction, Tes / RTV Corrective Direction, Sbno1 / RTV Corrective Direction, Unc119b / RTV Corrective Direction, Cfdp1 / RTV Corrective Direction, Sec61b: YES = protein abundance effect opposite to DYT/WT; conditions: EV protein abundance, DYT + RTV (ritonavir) vs DYT, direction compared with DYT/WT

Row | Molecule | RTV Corrective Direction
13 | B1 | YES
14 | B2 | YES
15 | B3 | YES
16 | B4 | YES
17 | B5 | YES
18 | B6 | YES

same assay, conditions: EV protein abundance, ritonavir (RTV)-treated DYT vs DYT

Row | Molecule | DYT + RTV/DYT Cohen's d
19 | B1 | 6.28
20 | B2 | 3.69
21 | B3 | 4.53
22 | B4 | 6.13
23 | B5 | 4.70
24 | B6 | 7.26
